A word on the Kd: it is the free concentration of one partner at which half of the binding sites on the other are occupied at equilibrium, for simple one-to-one binding. Read a high Kd as weaker binding.

The results in this text go back to article PMC8409790.

The target of the assay is FcRn/β2 microglobulin (UniProt P55899). Nature of the assay: SPR. (In SPR one partner is held on a chip, and binding of the other changes the refractive index at the surface.)
Chain of FcRn/β2 microglobulin (P55899 24-365, chain 1 of 2): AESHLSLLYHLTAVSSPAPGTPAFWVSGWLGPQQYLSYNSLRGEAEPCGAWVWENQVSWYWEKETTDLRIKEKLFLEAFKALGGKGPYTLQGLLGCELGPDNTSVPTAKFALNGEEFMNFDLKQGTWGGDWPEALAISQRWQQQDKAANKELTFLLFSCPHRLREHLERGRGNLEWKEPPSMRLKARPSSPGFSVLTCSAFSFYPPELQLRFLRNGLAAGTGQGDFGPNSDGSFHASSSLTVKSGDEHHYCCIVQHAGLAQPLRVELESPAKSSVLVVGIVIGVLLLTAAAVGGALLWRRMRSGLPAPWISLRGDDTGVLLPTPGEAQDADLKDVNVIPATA
Chain of FcRn/β2 microglobulin (P61769 21-119, chain 2 of 2, further chain): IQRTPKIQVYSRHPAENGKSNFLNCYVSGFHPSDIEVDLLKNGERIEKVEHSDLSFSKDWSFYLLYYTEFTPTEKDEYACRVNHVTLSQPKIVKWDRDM
Guselkumab (antibody) yielded an equilibrium dissociation constant (Kd) of 5 µM. This lies in the single-digit micromolar range.
The value for Risankizumab (antibody) was 5 µM; that for Tildrakizumab (antibody) was 5 µM; that for Ustekinumab (antibody) was 5 µM.
